The record followed here is patent US20210015931A1 (KOREA INSTITUTE OF SCIENCE AND TECHNOLOGY, published 2021).

The target of the assay is T1, CD47 receptors on HT-29 cells (human-derived colon cancer cells) (human, UniProt Q08722 19-323).
T1 construct: whole, on cells
Put plainly: confocal microscopy on HT-29 cells, uptake with and without CD47 antibody. Here is the method: It was investigated whether the fusion protein-siRNA complex prepared in Example 2 is effectively taken up into cells in vitro. First, 2×10⁵ HT-29 cells, which are human-derived colon cancer cells, were seeded onto a 35-mm cover glass bottom dish. Then, after adding SIRPα protein (SIRPα), CD47 siRNA or the fusion protein-siRNA complex prepared in Example 2 (SIPRα-CD47 siRNA), the cells were cultured at 37° C. for a day. Then, CD47 SiRNA was stained red by using the TOTO3 stain. Next, after treating with the fusion protein-siRNA complex separated and purified in Example 2 at a concentration of 100 pmol/mL, the cells were cultured for 4 hours in a carbon dioxide incubator at 37° C. Then, the cells were treated with a fixative and the SIRPα protein was stained green using FITC-labeled His-tag antibody. After staining the nuclei of the cells by treating with a 4′,6-diamidino-2-phenylindole (DAPI) solution for 10 minutes, fluorescence was measured by confocal microscopy.
A mixture solution of the fusion protein-siRNA complex prepared in Example 2 and the CD47 antibody (Ab) was used as a control group.

T1 sequence (Q08722 19-323): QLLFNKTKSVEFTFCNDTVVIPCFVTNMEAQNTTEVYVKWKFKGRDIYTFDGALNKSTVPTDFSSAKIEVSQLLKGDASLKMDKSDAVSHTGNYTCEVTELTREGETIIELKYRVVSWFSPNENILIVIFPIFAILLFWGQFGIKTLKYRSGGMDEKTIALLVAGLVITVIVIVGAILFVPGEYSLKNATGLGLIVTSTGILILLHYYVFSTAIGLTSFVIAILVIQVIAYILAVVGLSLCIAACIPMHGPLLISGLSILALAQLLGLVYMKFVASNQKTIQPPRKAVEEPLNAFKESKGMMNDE

B1: fusion protein-siRNA complex prepared in Example 2 (SIRPα-CD47 siRNA) (other)
chain: EEELQIIQPDKSVLVAAGETATLRCTITSLFPVGPIQWFRGAGPGRVLIYNQRQGPFPRVTTVSDTTKRNNMDFSIRIGNITPADAGTYYCIKFRKGSPDDVEFKSGAGTELSVRAKPVDGGFLGGGGCG
modifications: CD47 siRNA (sense SEQ ID NO: 17, antisense SEQ ID NO: 18) bound 1:1 through maleimide at the 3'-end of the sense strand to the thiol group of the cysteine at the end of the fusion protein
notes: The protein was expressed from pET28a in E. coli, purified on a His-tag column and detected with a His-tag antibody; also called SIPRα-CD47 siRNA; immunoregulatory protein-siRNA complex
As for B1, the binding result was “binds”.
